Source: US11306331B2, “Processes for the production of hydroxycinnamic acids using polypeptides having tyrosine ammonia lyase activity” (CysBio ApS, priority 2014, dated 2022)

Tests used:
[1] = substrate: N[C@@H](Cc1ccccc1)C(=O)O; experiment: purified protein, by the assay type; conditions: other: RsTAL, 30° C, 1.56 μM to 200 μM tyrosine or 193 μM to 25 mM phenylalanine, pH 7.5
Protocol: (§5) Enzymatic assays were performed in 200 μL volumes in wells in a UV transparent 96-well plate, by following the increase in absorbance at 315 nm (pHCA) or 295 nm (CA). The reaction mixtures contained 2 μg of purified protein and were initiated by adding 1 mM tyrosine or 6 mM after equilibration to 30° C. The enzymatic activity was calculated as U/g, where U is defined as μmol substrate converted per minute.

[2] = substrate: N[C@@H](Cc1ccc(O)cc1)C(=O)O; experiment: purified protein, by the assay type; conditions: other: RsTAL, 30° C, 1.56 μM to 200 μM tyrosine or 193 μM to 25 mM phenylalanine, pH 7.5
Protocol: as §5

[3] = tested on: E. coli BL21(DE3)pLysS cells; experiment: Titers of hydroxycinnamic acids in supernatants of E. coli cultures expressing TAL homologs; assay type: cell-based, Escherichia coli; conditions: 16 hours, 37° C., duplicate
Protocol: E. coli strains described in Example 1 were used. M9 medium with 0.2% glucose and 0.5 mM IPTG also containing either tyrosine (204 μM), L-dopa (194 μM) or 3-O-methyldopa (262 μM) was transferred as 3-mL aliquots into a 24-well deep-well plate (Enzyscreen). Aliquots were taken for HPLC before the wells were inoculated with 200 μL of overnight cultures of the strains. The plates were placed at 37° C. with shaking for 16 hours. Samples of the supernatant were withdrawn after two rounds of centrifugation. The samples were subjected to HPLC along with chemical standards as described in Example 1. p-coumaric acid, caffeic acid and ferulic acid was measured by absorbance at 333 nm. Tyrosine, L-dopa and 3-O-methyldopa were measured by fluorescence (excitation at 274 nm, emission at 303 nm).
There was no measurable product in the medium before inoculation.

[4] = tested on: Saccharomyces cerevisiae CEN.PK102-5B; experiment: Specific production of pHCA and CA by S. cerevisiae expressing TAL enzymes; assay type: cell-based; conditions: 72 h, 30° C., +/- standard deviation
Source text: A number of the previously characterized enzymes were characterized when expressed in Saccharomyces cerevisiae. Genes encoding HaXAL1 and FjXAL were synthesized with codon optimization for S. cerevisiae available by GeneArt (Life Technologies), and were named HaXAL1 Sc and FjXALSc. Genes were amplified using the oligonucleotide (refer to specific name) shown in Table 6, and inserted by uracil-excision into the vector pCfB132 together with the PPGK1 promoter amplified by primers PPGK1_fw and PPGK1_rv (Jensen et al., 2014). The finished plasmids were transformed into Saccharomyces cerevisiae CEN.PK102-5B (MAT a ura3-52 his3Δ1 leu2-3/112 MAL2-8c SUC2) using a standard lithium acetate transformation protocol and selected for on synthetic drop-out media plates lacking uracil.
Cells were grown in SC medium without uracil, and diluted into Delft medium or Feed-In-Time (FIT) medium (m2p-labs) supplemented with leucine and histidine. After 72 h of incubation at 30° C. with shaking, samples were taken for the analysis of optical density at 600 nm and for clarification of the supernatant, which was analyzed by HPLC as described in example 1. The specific production was calculated as micromolar (μM) concentration per unit of optical density of the culture at 600 nm and is shown in Table 4.

[5] = substrate: N[C@@H](Cc1ccccc1)C(=O)O; experiment: In vitro kinetics of purified His-tagged HaXAL1 (tyrosine/phenylalanine ammonia lyase activity, absorbance at 315/295 nm); assay type: biochemical, Herpetosiphon aurantiacus; conditions: other: HaXAL1, 30° C, 1.56 μM to 200 μM tyrosine or 193 μM to 25 mM phenylalanine, pH 7.5
Protocol: (§1) The tyrosine ammonia lyase activity may for instance be determined in accordance to the following method: Enzymatic assays are performed in 200 μL volumes in wells in a UV transparent 96-well plate, by following the increase in absorbance at 315 nm (pHCA) using spectrophotometry or HPLC with UV detection. The reaction mixtures contain 2 μg of purified protein and are initiated by adding 1 mM tyrosine or 6 mM after equilibration to 30° C. The enzymatic activity is calculated as U/g, where U is defined as μmol substrate converted per minute. Negative controls contain no purified protein. Kinetic constants Km and vmax are determined from assays containing 1.56 μM to 200 μM tyrosine. See also Kyndt et al. (2002).
(§2) Four of the enzymes were further purified by His-tag purification as follows. A DNA linker (5′ phosphorylated oligonucleotides CBJP559 and CBJP560, Table 5) was inserted in place of the sequence between the NdeI and BgIII site in plasmid pCDFDuet-1. This would result in the addition of the amino acids MAHHHHHHENLYFQ (SEQ ID NO: 11) to the N-terminal end of the polypeptides. The resulting plasmid was amplified with primers CBJP575 and CBJP576 (table 5) and the genes were amplified and combined using the Gibson reaction (New England Biolabs). The PCR amplification used the same reverse primers as in example 1, but the forward primers matching the His-tag site of the linker (Table 5). Plasmids carrying the genes (e.g. FjXAL, FIG. 4) were transformed into electrocompetent E. coli BL21(DE3)pLysS cells (Life Technologies) and selected on LB plates containing 50 ug/mL streptomycin.
(§3) Strains expressing His-tagged versions of the enzymes were grown in LB media overnight at 37° C. and diluted into fresh LB media with 1 mM IPTG and growth was propagated overnight (approximately 18 h) at 30° C. Cells were harvested by centrifugation at 8000 rpm for 8 minutes, and disrupted by shearing into a buffer (50 mM Tris-HCl, 10 mM imidazole, 500 mM NaCl, 10% glycerol, pH 7.5). The homogenate was clarified by centrifugation at 10000 g for 10 min at 4° C., and the supernatant was loaded onto Ni2+-NTA resin column on an Äkta Pure system connected to a F9-C fraction collector (GE). Finally the fractions containing the purified polypeptide was dialyzed overnight against a buffer containing 50 mM Tris-HCl pH 7.5, 150 mM NaCl and 10% glycerol, flash-frozen in liquid nitrogen and stored at −80° C.
(§4) Enzymatic assays were performed in 200 μL volumes in wells in a UV transparent 96-well plate, by following the increase in absorbance at 315 nm (pHCA) or 295 nm (CA). […] The enzymatic activity was calculated as U/g, where U is defined as μmol substrate converted per minute.

[6] = substrate: N[C@@H](Cc1ccc(O)cc1)C(=O)O; experiment: as above; assay type: biochemical, Herpetosiphon aurantiacus; conditions: other: HaXAL1, 30° C, 1.56 μM to 200 μM tyrosine or 193 μM to 25 mM phenylalanine, pH 7.5
Protocol: as §1, §2, §3, §4

[7] = tested on: E. coli BL21(DE3)pLysS cells; experiment: Specific production of pHCA and CA by E. coli expressing TAL/PAL enzymes; assay type: cell-based, Escherichia coli; conditions: 24 h after supplementation, +/- standard deviation
Protocol: Plasmids carrying the genes were transformed into electrocompetent E. coli BL21(DE3)pLysS cells (Life Technologies) and selected on LBplates containing 50 ug/mL streptomycin. The strains were grown in M9 minimal media containing glucose as a carbon source, and expression was induced by adding 1 mM IPTG at an optical density at 600 nm of 0.6. After three hours of growth at 30° C. the cultures were supplemented with 2 mM tyrosine, phenylalanine or histidine. After further 24 hours, samples were withdrawn for determination of the optical density at 600 nm and for the isolation of the supernatant.
The concentration of pHCA and CA in the supernatant was quantified by high performance (HPLC) and compared to chemical standards. HPLC was done on a Thermo setup using a HS-F5 column and mobile phases: 5 mM ammonium formate pH 4.0 (A) and acetonitrile (B) at 1.5 mL min-1, using a gradient elution starting at 5% B. From 0.5 min after injection to 7 min, the fraction of B increased linearly from 5% to 60%, and between 9.5 min and 9.6 the fraction of B decreased back to 5%, and remaining there until 12m pHCA and CA were quantified by measuring absorbance at 333 nm and 277 nm, respectively. The production was tested without addition of precursors or the addition of either phenylalanine or tyrosine to the growth medium.
The specific production was calculated as micromolar (μM) concentration per unit of optical density of the culture at 600 nm, and standard deviations were calculated based on triplicate experiments. HaXAL1, HaXAL2 and FjXAL are the most specific enzymes and those that reach the highest yields.

B1: Rhodobacter sphaeroides RsTAL (Protein GI 126464011), His-tagged (N-terminal tag SEQ ID NO: 11) (Cereibacter sphaeroides 2.4.1) (protein)
chain: MLAMSPPKPAVELDRHIDLDEAHSVASGGARIVLAPPARDRCRASEARLGAVIREARHVYGLTTGFGPLANRLVSGENVRTLQANLVHHLASGVGPVLDWTTARAMVLARLVAIAQGASGASEGTIARLIDLLNSELAPAVPMRGTVGASGDLTPLAHMVLCLQGRGDFLDRDGTRLDGAEGLRRGRLQPLDLSHRDALALVNGTSAMTGIALVNAHACRHLGNWAVALTALLAECLGGRTEAWAAALSDLRPHPGQKDAAARLRARVDGSARVVRHVIAERRLGASDIGTEPEAGQDAYSLRCAPQVLGAGFDTLAWHDRVLTIELNAVTDNPVFPPDGSVPALHGGNFMGQHVALTSDALATAVTVLAGLAERQIARLTDERLNRGLPPFLHRGPAGLNSGFMGAQVTATALLAEMRATGPASIHSISTNAANQDVVSLGTIAARLCREKIDRWAEILAILALCLAQAAELRCGSGLDGVSPAGKKLVQALREQFPPLETDRPLGQEIAALATHLLQQSPV
Km [1]: 2400 µM | kcat [1]: 0.0597 s⁻¹ | kcat/Km [1]: 24.6 M⁻¹ s⁻¹ | Km [2]: 5.6 µM

B2: Herpetosiphon aurantiacus HaXAL1 tyrosine ammonia lyase (Protein GI 159898407), SEQ ID NO: 2, His-tagged (N-terminal tag SEQ ID NO: 11) (Herpetosiphon … (protein)
chain: MSTTLILTGEGLGIDDVVRVARHQDRVELTTDPAILAQIEASCAYINQAVKEHQPVYGVTTGFGGMANVIISPEEAAELQNNAIWYHKTGAGKLLPFTDVRAAMLLRANSHMRGASGIRLEIIQRMVTFLNANVTPHVREFGSIGASGDLVPLISITGALLGTDQAFMVDFNGETLDCISALERLGLPRLRLQPKEGLAMMNGTSVMTGIAANCVHDARILLALALEAHALMIQGLQGTNQSFHPFIHRHKPHTGQVWAADHMLELLQGSQLSRNELDGSHDYRDGDLIQDRYSLRCLPQFLGPIIDGMAFISHHLRVEINSANDNPLIDTASAASYHGGNFLGQYIGVGMDQLRYYMGLMAKHLDVQIALLVSPQFNNGLPASLVGNIQRKVNMGLKGLQLTANSIMPILTFLGNSLADRFPTHAEQFNQNINSQGFGSANLARQTIQTLQQYIAITLMFGVQAVDLRTHKLAGHYNAAELLSPLTAKIYHAVRSIVKHPPSPERPYIWNDDEQVLEAHISALAHDIANDGSLVSAVEQTLSGLRSIILFR
Titer of ferulic acid ([3]; M9 + 3-O-methyldopa (262 μM)): 0.6 ± 0.0 µM | Titer of caffeic acid ([3]; M9 + L-dopa (194 μM)): 6.9 ± 1.3 µM | Titer of p-coumaric acid ([3]; M9 + tyrosine (204 μM)): 81 ± 1.2 µM | Specific production of CA ([4]; Delft + Tyr (10 mM)): 0 ± 0 μM OD600-1 | Specific production of pHCA ([4]; Delft + Tyr (10 mM)): 110 ± 15 μM OD600-1 | Specific production of CA ([4]; Delft medium): 0 ± 0 μM OD600-1 | Specific production of pHCA ([4]; Delft medium): 31 ± 3.2 μM OD600-1 | Specific production of CA ([4]; FIT + Tyr (10 mM)): 0 ± 0 μM OD600-1 | Specific production of pHCA ([4]; FIT + Tyr (10 mM)): 120 ± 10 μM OD600-1 | Specific production of CA ([4]; FIT medium): 0 ± 0 μM OD600-1 | Specific production of pHCA ([4]; FIT medium): 140 ± 13 μM OD600-1 | Km [5]: 22000 µM | kcat [5]: 0.128 s⁻¹ | kcat/Km [5]: 6.1 M⁻¹ s⁻¹ | Km [6]: 16 µM | Specific production of CA ([7]; M9 + Phe (2 mM)): 1.1 ± 0.2 μM OD600-1 | Specific production of pHCA ([7]; M9 + Phe (2 mM)): 36 ± 14 μM OD600-1 | Specific production of CA ([7]; M9 + Tyr (2 mM)): 0 ± 0 μM OD600-1 | Specific production of pHCA ([7]; M9 + Tyr (2 mM)): 130 ± 26 μM OD600-1
